Results as given in patent publication US20240181084.

System: TALEN-integrase (HIV IN deltaC) fusion pair targeting eGFP, 16 bp spacer
Experiment: cell_activity
Details: chloramphenicol-resistant colonies vs untargeted integrase; COS-7 plasmid integration assay

Work on eGFP TALEN pair target, 16 bp spacer yielded an activity of 6 fold.
